Publication PMC8567388

Assays:
[1] = biological target: Peptide ligand: GluN2B (TAMRA-NNG-…); assay: fluorescence polarisation
[2] = biological target: Peptide ligand: Stargazin (TAMRA-NNG-…); assay: fluorescence polarisation

Substance: PSD-95 PDZ1 6xHis (domain or fragment)
- Kd [1]: 12.4 µM
- Kd [2]: 27.3 µM

Substance: PSD-95 PDZ1-2 6xHis (domain or fragment)
- Kd [1]: 1.9 µM
